Among the data in patent publication US7071299B2, “Peptide and polypeptide inhibitors of complement C1s” (ZymoGenetics, Inc., priority 2000, dated 2006) are IC50 values, retold here.

For orientation: IC50 means the concentration at which inhibition is half-maximal.

Several values for one entry are separate records, joined by “and”; a condition that tells them apart may be missing. Equal entries are not always repeated.

For this experiment, the target named is T1, Activated human C1s (Homo sapiens, UniProt P09871).
T1 construct: purchased Calbiochem-Novabiochem Corporation; San Diego, Calif
T1 sequence (P09871 16-437 limits assumed): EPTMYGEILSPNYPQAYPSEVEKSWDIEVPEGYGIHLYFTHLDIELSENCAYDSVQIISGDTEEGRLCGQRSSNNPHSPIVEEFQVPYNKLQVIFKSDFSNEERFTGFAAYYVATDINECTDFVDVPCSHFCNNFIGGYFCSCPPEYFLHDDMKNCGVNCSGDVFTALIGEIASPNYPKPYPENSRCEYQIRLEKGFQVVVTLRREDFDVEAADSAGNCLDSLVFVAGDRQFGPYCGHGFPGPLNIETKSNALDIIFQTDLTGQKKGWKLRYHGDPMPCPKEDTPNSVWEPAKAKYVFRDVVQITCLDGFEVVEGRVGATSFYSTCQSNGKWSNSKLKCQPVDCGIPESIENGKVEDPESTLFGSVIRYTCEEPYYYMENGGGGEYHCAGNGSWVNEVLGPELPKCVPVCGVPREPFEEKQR
T1 sequence (P09871 438-688 limits assumed): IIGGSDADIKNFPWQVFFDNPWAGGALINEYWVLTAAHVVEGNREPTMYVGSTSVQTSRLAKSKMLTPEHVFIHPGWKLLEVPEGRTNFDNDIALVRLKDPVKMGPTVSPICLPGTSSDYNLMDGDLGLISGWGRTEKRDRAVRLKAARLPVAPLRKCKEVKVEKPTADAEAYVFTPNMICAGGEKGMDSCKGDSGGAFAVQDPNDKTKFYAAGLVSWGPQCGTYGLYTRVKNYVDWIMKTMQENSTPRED
The experiment is described as follows: C1s enzyme assay (chromogenic substrate Pefa-C1E, decrease in Vmax). Format: biochemical. The settings on record: Table 6, effect of posttranslational modifications on BD001 activity. The procedure: C1s enzyme assays were performed in 96 well plates preincubated in the assay buffer for 30 minutes at room temperature. Activated human C1s (Calbiochem-Novabiochem Corporation; San Diego, Calif.); final assay concentration: 1.25 μg/ml), was incubated with samples in 50 mM Tris-HCl (pH 8) that contained 116 mM sodium chloride and 0.05% Polysorbate 80. The chromogenic substrate, Pefa-C1E (Centerchem, Inc.; Stamford, Conn.; final assay concentration: 0.4 mM), was added to the assay wells and the plate was read at 405 nm, 37° C., for 30 minutes at 20 second intervals on a SPECTRAmax PLUS plate reader (Molecular Devices Corporation; Sunnyvale, Calif.). Inhibition was determined as a decrease in Vmax, which is calculated as the maximum Δ milli-absorbance units/min over the assay period.
Three types of post-translational modifications have been identified in BD001: (1) glycosylation at Asn^23 consisting of a fucosylated complex-type core; (2) sulfation of at least one of Tyr^117, Tyr^119, and Tyr^121; and (3) proteolytic cleavage after Arg^65. The first two modifications have been identified in native BD001 as well as recombinant BD001 expressed in Baculovirus. The third modification is seen in a fraction of the recombinant BD001 expressed in Baculovirus. […] The identity of each species was verified using mass spectroscopy, and protein concentrations were measured using absorbance at 280 nm. […]

B1: BD001 isolated from tissue: native leech protein BD001 (SEQ ID NO:1) isolated from the salivary complexes of the leech; inhibits C1s (protein, listed as Haementaria ghilianii)
chain: AKKKLPKCQKQEDCGSWDLKCNNVTKKCECRNQVCGRGCPKERYQRDKYGCRKCLCKGCDGFKCRLGCTYGFKTDKKGCEAFCTCNTKETACVNIWCTDPYKCNPESGRCEDPNEEYEYDYE
modifications: native, isolated from leech
In the case of B1, the IC50 was 4 nM and 4.7 nM.
